In article PMC6707142, “Orthogonal monoterpenoid biosynthesis in yeast constructed on an isomeric substrate” (Nature Communications, 2019):
Residue numbers refer to the chain shown, from its start. Names and notes keep the numbering of the source.

B1: SlNPPS1 (Solanum lycopersicum) (protein)
chain: SARGLNKISCSLNLQTEKLCYEDNDNDLDEELMPKHIALIMDGNRRWAKDKGLEVYEGHKHIIPKLKEICDISSKLGIQIITAFAFSTENWKRSKEEVDFLLQMFEEIYDEFSRSGVRVSIIGCKSDLPMTLQKCIALTEETTKGNKGLHLVIALNYGGYYDILQATKSIVNKAMNGLLDVEDINKNLFDQELESKCPNPDLLIRTGGEQRVSNFLLWQLAYTEFYFTNTLFPDFGEEDLKEAIMNFQQRHRRFGGHTY
B2: ClLimS (Citrus x limon) (protein)
chain: AKYKPVQCLISAKYDNLTVDRRSANYQPSIWDHDFLQSLNSNYTDEAYKRRAEELRGKVKIAIKDVIEPLDQLELIDNLQRLGLAHRFETEIRNILNNIYNNNKDYNWRKENLYATSLEFRLLRQHGYPVSQEVFNGFKDDQGGFICDDFKGILSLHEASYYSLEGESIMEEAWQFTSKHLKEVMISKNMEEDVFVAEQAKRALELPLHWKVPMLEARWFIHIYERREDKNHLLLELAKMEFNTLQAIYQEELKEISGWWKDTGLGEKLSFARNRLVASFLWSMGIAFEPQFAYCRRVLTISIALITVIDDIYDVYGTLDELEIFTDAVERWDINYALKHLPGYMKMCFLALYNFVNEFAYYVLKQQDFDLLLSIKNAWLGLIQAYLVEAKWYHSKYTPKLEEYLENGLVSITGPLIITISYLSGTNPIIKKELEFLESNPDIVHWSSKIFRLQDDLGTSSDEIQRGDVPKSIQCYMHETGASEEVARQHIKDMMRQMWKKVNAYTADKDSPLTGTTTEFLLNLVRMSHFMYLHGDGHGVQNQETIDVGFTLLFQPIPLEDKHMAFTASPGTKG
notes: 6xHis-tagged, E. coli BL21(DE3), Ni-NTA purified; printed as (+)-S-limonene synthase
B3: ClLimS (Citrus x limon; H570Y) (protein)
chain: B2 chain with H538Y
notes: as for B2
B4: ClLimS (Citrus x limon; H570I) (protein)
chain: B2 chain with H538I
notes: as for B2
B5: SfCinS1 (Salvia fruticosa; F571V) (protein)
chain: CSLQTGNEIQTERRTGGYQPTLWDFSTIQSFDSEYKEEKHLMRAAGMIDQVKMMLQEEVDSIRRLELIDDLRRLGISCHFEREIVEILNSKYYTNNEIDERDLYSTALRFRLLRQYDFSVSQEVFDCFKNAKGTDFKPSLVDDTRGLLQLYEASFLSAQGEETLRLARDFATKFLQKRVLVDKDINLLSSIERALELPTHWRVQMPNARSFIDAYKRRPDMNPTVLELAKLDFNMVQAQFQQELKEASRWWNSTGLVHELPFVRDRIVECYYWTTGVVERRQHGYERIMLTKINALVTTIDDVFDIYGTLEELQLFTTAIQRWDIESMKQLPPYMQICYLALFNFVNEMAYDTLRDKGFDSTPYLRKVWVGLIESYLIEAKWYYKGHKPSLEEYMKNSWISIGGIPILSHLFFRLTDSIEEEAAESMHKYHDIVRASCTILRLADDMGTSLDEVERGDVPKSVQCYMNEKNASEEEAREHVRSLIDQTWKMMNKEMMTSSFSKYFVEVSANLARMAQWIYQHESDGVGMQHSLVNKMLRDLLFHRYE
notes: 6xHis-tagged, E. coli BL21(DE3), Ni-NTA purified
B6: SfCinS1 (Salvia fruticosa; F571H) (protein)
chain: B5 chain with V527H
notes: as for B5
B7: SfCinS1 (Salvia fruticosa) (protein)
chain: B5 chain with V527F
notes: as for B5
B8: SfCinS1 (Salvia fruticosa; F571L) (protein)
chain: B5 chain with V527L
notes: as for B5

How the values were obtained:
[1] = substrate: CC(C)=CCOP(=O)(O)OP(=O)(O)O; test: GC-MS after acid hydrolysis of prenyl diphosphates; assay type: biochemical, Solanum lycopersicum; details: 0.05 mM IPP, 10 mM MOPS pH 7.0, 5 mM MgCl2, 30 °C, 1 h
purified protein = substrate: C=C(C)CCO[P@@](=O)(O)OP(=O)(O)O; test: purified protein; details: 0.05 mM DMAPP, 10 mM MOPS pH 7.0, 5 mM MgCl2, 30 °C, 1 h
[2] = substrate: CC(C)=CCC/C(C)=C\COP(=O)(O)OP(=O)(O)O; test: GC-MS of hexane-extracted monoterpene products; assay type: biochemical, Citrus x limon; details: 20 mM MOPS pH 7.0, 20 mM MgCl2, 0.02 mM MnCl2, 30 °C, 1 h
Source text: (§1) GC-MS of hexane-extracted monoterpene products on […]

[3] = substrate: CC(C)=CCC/C(C)=C/COP(=O)(O)OP(=O)(O)O; test: GC-MS of hexane-extracted monoterpene products; assay type: biochemical, Citrus x limon; details: 20 mM MOPS pH 7.0, 20 mM MgCl2, 0.02 mM MnCl2, 30 °C, 1 h
Source text: as §1

[4] = substrate: CC(C)=CCC/C(C)=C\COP(=O)(O)OP(=O)(O)O; test: GC-MS of hexane-extracted monoterpene products; assay type: biochemical, Salvia fruticosa; details: 20 mM MOPS pH 7.0, 20 mM MgCl2, 0.02 mM MnCl2, 30 °C, 1 h
Source text: (§2) GC-MS of hexane-extracted monoterpene products on […]1

[5] = substrate: CC(C)=CCC/C(C)=C/COP(=O)(O)OP(=O)(O)O; test: GC-MS of hexane-extracted monoterpene products; assay type: biochemical, Salvia fruticosa; details: 20 mM MOPS pH 7.0, 20 mM MgCl2, 0.02 mM MnCl2, 30 °C, 1 h
Source text: as §2

| Protein | Km [1] | kcat [1] | Km (purified protein) | kcat (purified protein) | Km [2] | kcat [2] | kcat/Km [2] | Km [3] | kcat [3] | kcat/Km [3] | Km [4] | kcat [4] | kcat/Km [4] | Km [5] | kcat [5] | kcat/Km [5] |
| --- | --- | --- | --- | --- | --- | --- | --- | --- | --- | --- | --- | --- | --- | --- | --- | --- |
| B1 | 66.72 ± 6.32 µM | 0.000617 ± 1.7e-05 s⁻¹ | 83.69 ± 17.41 µM | 0.000683 ± 5e-05 s⁻¹ | – | – | – | – | – | – | – | – | – | – | – | – |
| B2 | – | – | – | – | 81.55 ± 7.33 µM | 0.619 ± 0.0293 s⁻¹ | 7600 M⁻¹ s⁻¹ | 24.94 ± 3.76 µM | 0.306 ± 0.0147 s⁻¹ | 12200 M⁻¹ s⁻¹ | – | – | – | – | – | – |
| B3 | – | – | – | – | 23.98 ± 6.41 µM | 0.364 ± 0.0277 s⁻¹ | 15200 M⁻¹ s⁻¹ | 11.76 ± 4.82 µM | 0.149 ± 0.00717 s⁻¹ | 12600 M⁻¹ s⁻¹ | – | – | – | – | – | – |
| B4 | – | – | – | – | 27.06 ± 4.72 µM | 0.0317 ± 0.00217 s⁻¹ | 1170 M⁻¹ s⁻¹ | 24.43 ± 6.44 µM | 0.0035 ± 0.000333 s⁻¹ | 150 M⁻¹ s⁻¹ | – | – | – | – | – | – |
| B5 | – | – | – | – | – | – | – | – | – | – | 67.24 ± 13.30 µM | 0.0075 ± 0.000667 s⁻¹ | 117 M⁻¹ s⁻¹ | 271.5 ± 95.30 µM | 0.00533 ± 0.00133 s⁻¹ | 16.7 M⁻¹ s⁻¹ |
| B6 | – | – | – | – | – | – | – | – | – | – | 238.1 ± 34.35 µM | 0.0123 ± 0.00133 s⁻¹ | 50 M⁻¹ s⁻¹ | 18.05 ± 5.07 µM | 0.0143 ± 0.0015 s⁻¹ | 800 M⁻¹ s⁻¹ |
| B7 | – | – | – | – | – | – | – | – | – | – | 89.46 ± 4.99 µM | 0.203 ± 0.0445 s⁻¹ | 2280 M⁻¹ s⁻¹ | 26.12 ± 2.79 µM | 0.0927 ± 0.00633 s⁻¹ | 3550 M⁻¹ s⁻¹ |
| B8 | – | – | – | – | – | – | – | – | – | – | 71.82 ± 17.63 µM | 0.0107 ± 0.00133 s⁻¹ | 150 M⁻¹ s⁻¹ | 55.72 ± 9.22 µM | 0.00733 ± 0.00117 s⁻¹ | 133 M⁻¹ s⁻¹ |
